Results taken from US12552837B2, “Bicyclic peptide ligands with detectable moieties and uses thereof” (BicycleRD Limited, priority 2017, dated 2026).
*1 amine or outer side, *2 acyl side, *3 side chain or, on linkers, in order; H or OH if unused. Where a SMILES comes first, the peptide text is derived from it. Bridges are numbered along the chain shown (N, C = ends). [ ]: non-standard residue; d: D form. The star is where a group is joined. DOTA = O=C(O)CN1CCN(CC(=O)O)CCN(CC(=O)*)CCN(CC(=O)O)CC1; 1Nal = N[C@@H](Cc1cccc2ccccc12)C(=O)O; TBMB = c1c(C[*:1])cc(C[*:3])cc1C[*:2]; Tle = CC(C)(C)[C@H](N)C(=O)O

Tested on: xenograft tumor
Assay: μPET imaging with 68Ga-labelled Bicycle peptides in xenograft mice
Assay type: in vivo
Conditions: 150 pmoles
Procedure: General method for μPET imaging: the mice were anaesthetized (2% sevoflurane, Abbott), placed into the small animal PET scanner (Inveon PET, Siemens) and injected with 68Ga-labeled Bicycle peptides. A 20 min transmission scan, a 50 min dynamic scan and a static scan from 100 to 120 min p.i. were performed. Images were reconstructed iteratively using the space alternating generalized expectation maximization method (SAGE, 16 subsets, 4 iterations) applying median root prior correction and were converted to standardized uptake value (SUV) images. Quantitation was done using a ROI (region of interest) technique and expressed as SUVmean.
General method for radiolabeling with Ga-68: ^68Ga (half-life 68 min; β^+ 89%; Eβ+max. 1.9 MeV) was obtained from a in house ^68Ge/^68Ga generator based on pyrogallol resin support. 1 GBq ^68Ga was eluted using 5.5 M HCl. The activity was trapped on a small anion-exchanger cartridge (AG1X8, Biorad, Richmond, CA, USA) as [^68Ga]GaCl4^−. The radiogallium was eluted from the cartridge in a final volume of 300 μL ultrapure water (Merck, Darmstadt, Germany) as [^68Ga]GaCl3.
1 nmol Bicycle peptide in 1 μL DMSO was added to a mixture of 50 μL 0.05 M HEPES, 0.1% Tween-20, and 80 μL [^68Ga]Ga^3+ eluate (˜200 MBq). The pH of the labelling solution was adjusted to 4.2 using 30% NaOH. The reaction mixture was incubated at 98° C. for 10 minutes. The radiochemical yield (RCY) was determined using reversed-phase high performance liquid chromatography (RP-HPLC; Chromolith RP-18e, 100×4.6 mm; Merck, Darmstadt, Germany). The analytical HPLC run was performed using a linear A-B gradient (0% B to 100% B in 6 min) at a flow rate of 4 mL/min. Solvent A consisted of 0.1% aqueous TFA and solvent B was 0.1% TFA in CH3CN.
For μPET imaging, the labelling reaction mixture was diluted in injection buffer (0.25 M Na-Acetate 0.05% Tween-20 pH 7) by a factor of 6 to obtain 150 pmoles in 100 μL injection buffer. The anaesthetized mouse (2% sevoflurane, Abbott) was injected with 100 μL of ^68Ga-labelled I-23 (˜25 MBq) and placed in a small animal PET scanner (Inveon PET, Siemens). The imaging was performed 60 min post-injection and included a 15 min transmission scan before injection and a 60 min emission scan post-injection. Scans from μPET imaging were reconstructed iteratively using the space alternating generalized expectation maximization method (SAGE, 16 subsets, 4 iterations) applying median root prior correction and were converted to standardized uptake value (SUV) images. Quantitation was accomplished using an ROI (region of interest) technique and expressed as SUVmean.
The radiolabelling with Ga-68 was done as described before. […] Quantitation was accomplished using an ROI (region of interest) technique and expressed as SUVmean. […]

Structure (SMILES): C[C@H](NC(=O)CN1CCN(CC(=O)O)CCN(CC(=O)O)CCN(CC(=O)O)CC1)C(=O)N[C@H]1CSCc2cc3cc(c2)CSC[C@H](NC(=O)[C@@H](C)NC(=O)[C@H](Cc2cccc4ccccc24)NC(=O)[C@H](CCC(=O)O)NC(=O)[C@H](CC(N)=O)NC(=O)[C@@H](C)NC1=O)C(=O)N[C@@H](CCC(=O)O)C(=O)N[C@@H](CC(=O)O)C(=O)N[C@@H](Cc1ccccc1)C(=O)N[C@@H](Cc1ccc(O)cc1)C(=O)N[C@@H](CC(=O)O)C(=O)N[C@@H](C(C)(C)C)C(=O)N[C@H](C(N)=O)CSC3 [I-23] ({DOTA}-AC[dA]NE[1Nal][dA]CEDFYD[Tle]C-NH2; linker 2-8-15 via TBMB)
- time post injection from which high imaging contrasts are seen: 20 min
- tumor uptake in μPET images: MMP-14-selective tumor uptake
